Experimental data published in patent US8465981B2, “Polypeptides, systems, and methods useful for detecting glucose” (University of Kentucky Research Foundation, priority 2007, dated 2013).

Columns and labels:
Type in all cases: binding
[1] = Fragments of wtGBP in response to glucose: fluorescence quenching of labeled tGBPs; settings: labeled tGBP 1×10^-7 M
Experimental: (§1) Once the PCR amplified gene fragments were obtained, they were inserted into expression vector pQE70. The constructed expression plasmids were then transformed into the auxotrophic strain of E. coli. Protein expression was performed using medium shift method. A single freshly transformed colony was used to inoculate 5 mL of M9 media supplemented with 0.4% glucose; 1 mM MgSO4; 0.1 mM CaCl2; 1 mM Thiamine; 0.1 volume of a solution containing 0.01% (w/v) each of 20 amino acids, less any amino acid that is to be replaced by unnatural amino acids (e.g., each of 19 amino acids where one is to be replaced); 40 μg/mL of the remaining amino acid(s) (e.g., 20th amino acid), and appropriate amount of antibiotic. T his culture was allowed to grow overnight at 37° C., 250 rpm. 500 mL culture containing the same ingredients was inoculated with the overnight grown 5 mL culture. This culture was then grown until the optical density (OD600) was about 0.5. The cells were then centrifuged at 10000 rpm for 10 min, 25° C., the supernatant was discarded and the cells were resuspended in a 0.9% NaCl solution for washing, and this was repeated three times. The cells were then resuspended in 500 mL M9 minimal media which was supplemented with 0.4% glucose, 1 mM MgSO4, 0.1 mM CaCl2, 1 mM Thiamine, 0.1 volume of a solution containing 0.01% (w/v) each of 20 amino acids less any amino acid(s) to be replaced by unnatural amino acids (e.g., 19 amino acids), appropriate amount of antibiotic, and grown at 37° C. for 30 min to further deplete natural amino acid that has to be replaced by the unnatural amino acid. 1 mM IPTG was then added with 0.1 mM of unnatural amino acid to the culture and was grown overnight at 37° C. The cells were harvested by centrifugation and the protein was purified using Ni-NTA resin since GBP mutant has His-tag. The purified protein was then labeled with fluorophore MDCC (N-[2-(1-maleimidyl(ethyl]-7-(diethylamino)coumarin-3-carboxamide), e.g., labeled at cysteine-152 of SEQ ID NO: 1.
Fragments of wtGBP in Response to Glucose. In order to check for activity of the labeled tGBPs, an assay was performed. Upon glucose binding, the proteins should undergo a conformational change, resulting in a change in the local environment of the fluorophore molecule, which leads to a change in the fluorescence signal observed. The assay was carried out by preparing glucose solutions of concentrations ranging from 1×10^−1M to 1×10^−6M. These glucose standards were then added to 180 μL samples of the labeled tGBPs at a concentration of 1×10^−7M. The resulting fluorescence intensity was measured. The results obtained from one study including the isolated polypeptide molecules of SEQ ID NO: 2 (tGBP1) and SEQ ID NO: 3 (tGBP2) are presented in Table C.

[2] = Fluorescence response to glucose of MDCC-labeled fragment amino acids 87-271 of wtGBP
Description: Expression and Labeling of Isolated Polypeptide Molecules. In order to obtain the gene for insertion into an expression vector, PCR amplification was employed. Primers were designed to amplify isolated polypeptide molecules of interest, e.g., polypeptide molecules of SEQ ID NOS: 1-7, and a fragment including amino acids 87-271 of SEQ ID NO: 1.
as §1

[3] = Unnatural analogues of wtGBP in response to glucose: fluorescence dose response; settings: labeled protein 5×10^-7 M, glucose 10^-2 M-10^-8 M, 15 min, room temperature
Description: Unnatural Analogues of wtGBP with Unnatural Tryptophans. Unnatural analogues of wtGBP from E. coli were produced, where natural tryptophans were replaced with unnatural tryptophans. Tryptophan auxotrophic strain of E. coli (#27873) was obtained. Plasmid placI and plasmid pQE70 containing the genetic sequence of the wtGBP mutated at 152 (containing a cysteine in this position for fluorophore attachment) were transformed into the tryptophan auxotrophic strain of E. coli. Protein expression was performed using medium shift method. A single freshly transformed colony was used to inoculate 5 mL of M9 media supplemented with 0.4% glucose, 1 mM MgSO4, 0.1 mM CaCl2, 1 mM Thiamine, 0.1 volume of a solution containing 0.01% (w/v) each of 18 amino acids (less Trp and Leu), 40 μg/mL Leu, 40 μg/mL Trp, 100 μg/mL Ampicillin, and 35 μg/mL Chloramphenicol.
This culture was allowed to grow overnight at 37° C., 250 rpm. 500 mL culture containing the same ingredients was inoculated with the overnight grown 5 mL culture. This culture was then grown till the optical density (OD600) was about 0.5. […]
Unnatural Analogues of wtGBP in Response to Glucose. […] Fluorescence of the samples was then measured using a Carry Eclipse Fluorimeter.

Molecule: tGBP1: fragment of wtGBP from E. coli including amino acids 14-296 of SEQ ID NO: 1
- Percent Fluorescence Quenching ([1]; Glucose 1 × 10^-1 M): 20.37%
- Percent Fluorescence Quenching ([1]; Glucose 1 × 10^-2 M): 14.61%
- Percent Fluorescence Quenching ([1]; Glucose 1 × 10^-3 M): 7.5538%
- Percent Fluorescence Quenching ([1]; Glucose 1 × 10^-4 M): 2.433%
- Percent Fluorescence Quenching ([1]; Glucose 1 × 10^-5 M): 2.908%
- Percent Fluorescence Quenching ([1]; Glucose 1 × 10^-6 M): −0.09539%

B1: fragment containing amino acids 87-271: fragment containing amino acids 87-271 of wtGBP from E. coli (SEQ ID NO: 1) (protein)
chain: VVFFNKEPSRKALDSYDKAYYVGTDSKESGIIQGDLIAKHWAANQGWDLNKDGQIQFVLLKGEPGCPDAEARTTYVIKELNDKGIKTEQLQLDTAMWDTAQAKDKMDAWLSGPNANKIEVVIANNDAMAMGAVEALKAHNKSSIPVFGVDALPEALALVKSGALAGTVLNDANNQAKATFDLAKN
modifications: E. Coli
- Fluorescence Intensity (AVG) ([2]; Glucose Concentration 0 M): 485.282
- Fluorescence Intensity (AVG) ([2]; Glucose Concentration 1.00E-03 M): 468.792
- Fluorescence Intensity (AVG) ([2]; Glucose Concentration 1.00E-04 M): 467.383
- Fluorescence Intensity (AVG) ([2]; Glucose Concentration 1.00E-05 M): 478.877
- Fluorescence Intensity (AVG) ([2]; Glucose Concentration 1.00E-06 M): 497.146
- Fluorescence Intensity (AVG) ([2]; Glucose Concentration 1.00E-07 M): 463.041
- Fluorescence Intensity (AVG) ([2]; Glucose Concentration 1.00E-08 M): 442.682
- Response to glucose (trend of fluorescence) ([2]; glucose 0 to 1.00E-03 M): large error and no clear trend in response to glucose

B2: SEQ ID NO: 3, where all natural tryptophans are replaced with 5-fluorotryptophans: unnatural analogue fragment of wtGBP, MDCC labeled (protein)
chain: DNFMSVVRKAIEQDAKAAPDVQLLMNDSQNDQSKQNDQIDVLLAKGVKALAINLVDPAAAGTVIEKARGQNVPVVFFNKEPSRKALDSYDKAYYVGTDSKESGIIQGDLIAKHWAANQGWDLNKDGQIQFVLLKGEPGHPDAEARTTYVIKELNDKGIKTEQLQLDTAMWDTAQAKDKMDAWLSGPNANKIEVVIANNDAMAMGAVEALKAHNKSSIPVFGVDALPEALALVKSGALAGTVLN
modifications: all Trp to 5-fluorotryptophan; MDCC label; E. Coli
notes: unnatural analogue fragment of wtGBP, MDCC labeled
- Change in fluorescence intensity with increasing concentrations of glucose [3]: dose-dependent change in fluorescence intensities

B3: SEQ ID NO: 3, where all natural leucines are replaced with 5,5,5-trifluoroleucines: unnatural analogue fragment of wtGBP, MDCC labeled (protein)
chain: DNFMSVVRKAIEQDAKAAPDVQLLMNDSQNDQSKQNDQIDVLLAKGVKALAINLVDPAAAGTVIEKARGQNVPVVFFNKEPSRKALDSYDKAYYVGTDSKESGIIQGDLIAKHWAANQGWDLNKDGQIQFVLLKGEPGHPDAEARTTYVIKELNDKGIKTEQLQLDTAMWDTAQAKDKMDAWLSGPNANKIEVVIANNDAMAMGAVEALKAHNKSSIPVFGVDALPEALALVKSGALAGTVLN
modifications: all Leu to 5,5,5-trifluoroleucine; MDCC label; E. Coli
notes: as for B2
- Change in fluorescence intensity with increasing concentrations of glucose [3]: dose-dependent change in fluorescence intensities

B4: tGBP2: fragment of wtGBP from E. coli including amino acids 14-256 of SEQ ID NO: 1 (protein)
chain: DNFMSVVRKAIEQDAKAAPDVQLLMNDSQNDQSKQNDQIDVLLAKGVKALAINLVDPAAAGTVIEKARGQNVPVVFFNKEPSRKALDSYDKAYYVGTDSKESGIIQGDLIAKHWAANQGWDLNKDGQIQFVLLKGEPGHPDAEARTTYVIKELNDKGIKTEQLQLDTAMWDTAQAKDKMDAWLSGPNANKIEVVIANNDAMAMGAVEALKAHNKSSIPVFGVDALPEALALVKSGALAGTVLN
modifications: E. Coli
- Percent Fluorescence Quenching ([1]; Glucose 1 × 10^-1 M): 6.266%
- Percent Fluorescence Quenching ([1]; Glucose 1 × 10^-2 M): 7.502%
- Percent Fluorescence Quenching ([1]; Glucose 1 × 10^-3 M): 8.966%
- Percent Fluorescence Quenching ([1]; Glucose 1 × 10^-4 M): 5.874%
- Percent Fluorescence Quenching ([1]; Glucose 1 × 10^-5 M): 2.795%
- Percent Fluorescence Quenching ([1]; Glucose 1 × 10^-6 M): 1.748%
